Experimental data published in the supplement of paper PMC6757056.
± gives the standard deviation of the averaged measurements.

B1: library; a variant is named by its letters at N, in order (parent)
chain: GCUGUCACCGGUGCUUGGUACGUUAUAUUCAGCCGGUCUGAUGAGUCUNNNNNNAGACGAAACAGC

What was measured:
(6R,S)-folinic acid [1] = variants of: B1; test: normalized RNA/DNA level without ligand (relative to sTRSVctl = 100) (log10 (% of sTRSVctl)); HEK293T overexpressing SLC46A1; higher = less ribozyme self-cleavage, higher mRNA level; settings: without (6R,S)-folinic acid; ligand present: no
Procedure, shortened: (§1)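 Only sequences with at least 100 DNA reads were analyzed, from HEK293T cells transfected with 4 µg per 6-well well of ribozyme switch library plasmids 72 h before RNA extraction with EDTA. Any ligand was added 1 h before transfection. RNA level was defined as RNA over DNA reads, normalized to a spiked-in non-cleaving sequence or to the top sequences, then scaled and log-transformed. The top set was 25 sequences, and the scaling was ×100 followed by log10.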

(6R,S)-folinic acid [2] = variants of: B1; test: normalized RNA/DNA level with ligand (relative to sTRSVctl = 100) (log10 (% of sTRSVctl)); HEK293T overexpressing SLC46A1; ligand concentration (+) RNA-Seq: 6 mM; higher = less ribozyme self-cleavage, higher mRNA level; settings: with (6R,S)-folinic acid; ligand present: yes
Procedure, shortened: as §1

Row | Variant | normalized RNA/DNA level without ligand (log10) ((6R,S)-folinic acid [1]) | normalized RNA/DNA level with ligand (log10) ((6R,S)-folinic acid [2])
1 | CGCCUC | 2.039 ± 0.0057 | 1.992 ± 0.015
2 | GGCCUC | 2.044 ± 0.018 | 2.06 ± 0.025
3 | UGCCUC | 2.065 ± 0.0067 | 2 ± 0.065
4 | AGCCUC | 2.049 ± 0.012 | 2.03 ± 0.029
5 | CGCCUG | 2.057 ± 0.011 | 2.056 ± 0.002
6 | GGCCUG | 2.064 ± 0.015 | 2.03 ± 0.085
7 | CGCCUU | 2.0227 ± 0.00028 | 2.007 ± 0.018
8 | GGCCUU | 2.108 ± 0.0078 | 2.09 ± 0.042
9 | UGCCUU | 2.0129 ± 0.0012 | 2.011 ± 0.018
10 | AGCCUU | 2.0374 ± 0.0006 | 2.02 ± 0.037
11 | CGCGAA | 1.9769 ± 0.0003 | 2.01 ± 0.031
12 | GGCGAA | 2.051 ± 0.0044 | 2.04 ± 0.021
13 | UGCGAA | 1.966 ± 0.011 | 1.97 ± 0.029
14 | AGCGAA | 1.96 ± 0.014 | 2.01 ± 0.03
15 | CGCGAC | 2.0427 ± 0.0011 | 2.04 ± 0.029
16 | AGCGAC | 1.99 ± 0.011 | 2.0338 ± 0.00013
17 | CGCGAG | 1.98 ± 0.039 | 2 ± 0.037
18 | GGCGAG | 2.05 ± 0.017 | 2.018 ± 0.018
19 | AGCGAG | 1.886 ± 0.014 | 1.998 ± 0.012
20 | CGCGAU | 1.939 ± 0.0057 | 1.97 ± 0.041
21 | AGCGAU | 1.982 ± 0.0033 | 2 ± 0.028
22 | CGCGCA | 2.036 ± 0.014 | 2.04 ± 0.026
23 | GGCGCA | 2.06 ± 0.0043 | 2.051 ± 0.019
24 | UGCGCA | 1.951 ± 0.002 | 1.98 ± 0.033

Row | Variant | normalized RNA/DNA level without ligand (log10) ((6R,S)-folinic acid [1]) | normalized RNA/DNA level with ligand (log10) ((6R,S)-folinic acid [2])
25 | CGCGCC | 2.096 ± 0.0053 | 2.0477 ± 0.00068
26 | GGCGCC | 2.093 ± 0.017 | 2.07 ± 0.023
27 | UGCGCC | 2.07 ± 0.015 | 2.043 ± 0.0087
28 | AGCGCC | 2.058 ± 0.017 | 2.03 ± 0.037
29 | CGCGCG | 1.995 ± 0.016 | 1.95 ± 0.1
30 | GGCGCG | 2.085 ± 0.011 | 2.06 ± 0.05
31 | UGCGCG | 1.81 ± 0.046 | 1.99 ± 0.056
32 | AGCGCG | 1.972 ± 0.019 | 2 ± 0.037
33 | CGCGCU | 2.08 ± 0.043 | 2.05 ± 0.047
34 | GGCGCU | 2.113 ± 0.014 | 2.1 ± 0.057
35 | AGCGCU | 2.027 ± 0.0049 | 2.01 ± 0.026
36 | CGCGGA | 2.052 ± 0.0026 | 2.05 ± 0.03
37 | GGCGGA | 2.064 ± 0.0089 | 2.021 ± 0.016
38 | UGCGGA | 1.886 ± 0.0066 | 2.01 ± 0.04
39 | AGCGGA | 2.024 ± 0.0064 | 2.024 ± 0.01
40 | CGCGGC | 2.11 ± 0.023 | 2.13 ± 0.047
41 | GGCGGC | 2.012 ± 0.018 | 2.014 ± 0.013
42 | UGCGGC | 1.998 ± 0.006 | 1.98 ± 0.045
43 | AGCGGC | 2.104 ± 0.0038 | 2.05 ± 0.039
44 | CGCGGG | 1.938 ± 0.017 | 2.039 ± 0.01
45 | GGCGGG | 2.1126 ± 0.00086 | 2.08 ± 0.028
46 | AGCGGG | 2.004 ± 0.016 | 2.055 ± 0.019
47 | CGCGGU | 2.003 ± 0.019 | 2.035 ± 0.015
48 | GGCGGU | 2.06 ± 0.026 | 2.03 ± 0.037

Row | Variant | normalized RNA/DNA level without ligand (log10) ((6R,S)-folinic acid [1]) | normalized RNA/DNA level with ligand (log10) ((6R,S)-folinic acid [2])
49 | UGCGGU | 1.976 ± 0.014 | 2.03 ± 0.025
50 | CGCGUA | 1.993 ± 0.017 | 2.006 ± 0.0037
51 | GGCGUA | 2.068 ± 0.004 | 2.04 ± 0.03
52 | UGCGUA | 1.904 ± 0.015 | 1.98 ± 0.035
53 | AGCGUA | 1.973 ± 0.0096 | 2 ± 0.028
54 | CGCGUC | 2.071 ± 0.0094 | 2.06 ± 0.036
55 | GGCGUC | 2.058 ± 0.012 | 2.01 ± 0.047
56 | UGCGUC | 2.09 ± 0.0072 | 2.04 ± 0.044
57 | AGCGUC | 2.083 ± 0.0033 | 2.06 ± 0.037
58 | CGCGUG | 1.963 ± 0.0059 | 2 ± 0.027
59 | GGCGUG | 2.071 ± 0.0047 | 2.06 ± 0.033
60 | AGCGUG | 1.92 ± 0.023 | 2.02 ± 0.03
61 | CGCGUU | 2.094 ± 0.014 | 2.07 ± 0.03
62 | GGCGUU | 2.08 ± 0.027 | 2.06 ± 0.034
63 | UGCGUU | 1.972 ± 0.018 | 2 ± 0.051
64 | AGCGUU | 2 ± 0.021 | 2.015 ± 0.0096
65 | CGCUAA | 1.97 ± 0.019 | 1.99 ± 0.055
66 | GGCUAA | 2.036 ± 0.011 | 2.05 ± 0.033
67 | AGCUAA | 2 ± 0.033 | 1.999 ± 0.0025
68 | CGCUAC | 2.0081 ± 0.001 | 2.03 ± 0.048
69 | GGCUAC | 2.02 ± 0.042 | 2.05 ± 0.021
70 | UGCUAC | 2.021 ± 0.0079 | 2.02 ± 0.071
71 | AGCUAC | 2.029 ± 0.012 | 2.01 ± 0.063
72 | CGCUAG | 2.007 ± 0.0038 | 2.025 ± 0.011

Row | Variant | normalized RNA/DNA level without ligand (log10) ((6R,S)-folinic acid [1]) | normalized RNA/DNA level with ligand (log10) ((6R,S)-folinic acid [2])
73 | GGCUAG | 2.063 ± 0.0075 | 2.042 ± 0.004
74 | AGCUAG | 1.935 ± 0.002 | 2.01 ± 0.025
75 | CGCUAU | 1.981 ± 0.0029 | 2 ± 0.024
76 | GGCUAU | 2.051 ± 0.0061 | 2.01 ± 0.027
77 | UGCUAU | 1.994 ± 0.0055 | 2.05 ± 0.03
78 | AGCUAU | 1.987 ± 0.014 | 2.009 ± 0.018
79 | CGCUCA | 2.05 ± 0.022 | 2.038 ± 0.008
80 | GGCUCA | 2.073 ± 0.011 | 2.01 ± 0.033
81 | UGCUCA | 1.982 ± 0.006 | 1.988 ± 0.013
82 | AGCUCA | 2.07 ± 0.026 | 2.01 ± 0.04
83 | CGCUCC | 2.082 ± 0.015 | 2.057 ± 0.017
84 | GGCUCC | 2.0314 ± 0.0019 | 2.02 ± 0.046
85 | UGCUCC | 2.062 ± 0.0087 | 2.03 ± 0.081
86 | AGCUCC | 2.095 ± 0.0069 | 2.04 ± 0.042
87 | CGCUCG | 2.047 ± 0.0074 | 2.018 ± 0.015
88 | GGCUCG | 2.067 ± 0.014 | 2.03 ± 0.042
89 | AGCUCG | 1.99 ± 0.024 | 1.998 ± 0.0042
90 | CGCUCU | 2.1 ± 0.033 | 2.06 ± 0.033
91 | GGCUCU | 2.087 ± 0.0098 | 2.05 ± 0.038
92 | AGCUCU | 2.02 ± 0.039 | 2.055 ± 0.0097
93 | CGCUGA | 2.075 ± 0.003 | 2.05 ± 0.03
94 | GGCUGA | 2.094 ± 0.014 | 2.08 ± 0.052
95 | AGCUGA | 2.0496 ± 0.0016 | 2.028 ± 0.014
96 | GGCUGC | 2.07 ± 0.0054 | 2.05 ± 0.021

Row | Variant | normalized RNA/DNA level without ligand (log10) ((6R,S)-folinic acid [1]) | normalized RNA/DNA level with ligand (log10) ((6R,S)-folinic acid [2])
97 | UGCUGC | 2.038 ± 0.018 | 2.01 ± 0.049
98 | AGCUGC | 2.038 ± 0.014 | 2.05 ± 0.022
99 | CGCUGG | 1.974 ± 0.0042 | 2.016 ± 0.0049
100 | GGCUGG | 2.064 ± 0.0042 | 2.05 ± 0.046
101 | AGCUGG | 2.05 ± 0.0052 | 2.06 ± 0.031
102 | CGCUGU | 2.03 ± 0.038 | 2 ± 0.02
103 | GGCUGU | 2.067 ± 0.016 | 2.066 ± 0.019
104 | UGCUGU | 2.015 ± 0.0082 | 1.995 ± 0.0073
105 | AGCUGU | 2.039 ± 0.012 | 2.032 ± 0.016
106 | CGCUUA | 2.002 ± 0.011 | 2.014 ± 0.019
107 | GGCUUA | 2.0768 ± 0.0012 | 2.03 ± 0.03
108 | UGCUUA | 2.003 ± 0.0057 | 2.03 ± 0.026
109 | AGCUUA | 1.996 ± 0.0022 | 2.01 ± 0.062
110 | CGCUUC | 2.1105 ± 0.0021 | 2.09 ± 0.066
111 | GGCUUC | 2.085 ± 0.0026 | 2.08 ± 0.067
112 | UGCUUC | 2.04 ± 0.027 | 2.04 ± 0.043
113 | AGCUUC | 2.0594 ± 0.00028 | 2.045 ± 0.011
114 | CGCUUG | 2.066 ± 0.018 | 2.041 ± 0.015
115 | GGCUUU | 2.079 ± 0.0033 | 2.041 ± 0.013
116 | UGCUUU | 2.016 ± 0.0073 | 2.032 ± 0.0036
